B1: VB6-845-F-de-bouganin (Fab)
chain 1: HHHHHHEVQLVQSGPGLVQPGGSVRISCAASGYTFTNYGMNWVKQAPGKGLEWMGWINTYTGESTYADSFKGRFTFSLDTSASAAYLQINSLRAEDTAVYYCARFAIKGDYWGQGTLLTVSSASTKGPSVFPLAPSSKSTSGGTAALGCLVKDYFPEPVTVSWNSGALTSGVHTFPAVLQSSGLYSLSSVVTVPSSSLGTQTYICNVNHKPSNTKVDKKVEPKSC
chain 2: DIQMTQSPSSLSASVGDRVTITCRSTKSLLHSNGITYLYWYQQKPGKAPKLLIYQMSNLASGVPSRFSSSGSGTDFTLTISSLQPEDFATYYCAQNLEIPRTFGQGTKVELKRTVAAPSVFIFPPSDEQLKSGTASVVCLLNNFYPREAKVQWKVDNALQSGNSQESVTEQDSKDSTYSLSSTLTLSKADYEKHKVYACEVTHQGLSSPVTKSFNRGECTRHRQPRGWEQLYNTVSFNLGEAYEYPTFIQDLRNELAKGTPVCQLPVTLQTIADDKRFVLVDITTTSKKTVKVAIDVTDVYVVGYQDKWDGKDRAVFLDKVPTVATSKLFPGVTNRVTLTFDGSYQKLVNAAKADRKALELGVNKLEFSIEAIHGKTINGQEAAKFFLIVIQMVSEAARFKYIETEVVDRGLYGSFKPNFKVLNLENNWGDISDAIHKSSPQCTTINPALQLISPSNDPWVVNKVSQISPDMGILKFKSSK
notes: also called VB6-845L-F-de-bouganin
B2: VB6-845-F1R-de-bouganin (Fab)
chain 1: HHHHHHEVQLVQSGPGLVQPGGSVRISCAASGYTFTNYGMNWVKQAPGKGLEWMGWINTYTGESTYADSFKGRFTFSLDTSASAAYLQINSLRAEDTAVYYCARFAIKGDYWGQGTLLTVSSASTKGPSVFPLAPSSKSTSGGTAALGCLVKDYFPEPVTVSWNSGALTSGVHTFPAVLQSSGLYSLSSVVTVPSSSLGTQTYICNVNHKPSNTKVDKKVEPKSC
chain 2: DIQMTQSPSSLSASVGDRVTITCRSTKSLLHSNGITYLYWYQQKPGKAPKLLIYQMSNLASGVPSRFSSSGSGTDFTLTISSLQPEDFATYYCAQNLEIPRTFGQGTKVELKRTVAAPSVFIFPPSDEQLKSGTASVVCLLNNFYPREAKVQWKVDNALQSGNSQESVTEQDSKDSTYSLSSTLTLSKADYEKHKVYACEVTHQGLSSPVTKSFNRGECTRHRRKRSVYNTVSFNLGEAYEYPTFIQDLRNELAKGTPVCQLPVTLQTIADDKRFVLVDITTTSKKTVKVAIDVTDVYVVGYQDKWDGKDRAVFLDKVPTVATSKLFPGVTNRVTLTFDGSYQKLVNAAKADRKALELGVNKLEFSIEAIHGKTINGQEAAKFFLIVIQMVSEAARFKYIETEVVDRGLYGSFKPNFKVLNLENNWGDISDAIHKSSPQCTTINPALQLISPSNDPWVVNKVSQISPDMGILKFKSSK
notes: also called F1R linker construct
B3: VB6-845-CB1-CD-de-bouganin (Fab)
chain 1: HHHHHHEVQLVQSGPGLVQPGGSVRISCAASGYTFTNYGMNWVKQAPGKGLEWMGWINTYTGESTYADSFKGRFTFSLDTSASAAYLQINSLRAEDTAVYYCARFAIKGDYWGQGTLLTVSSASTKGPSVFPLAPSSKSTSGGTAALGCLVKDYFPEPVTVSWNSGALTSGVHTFPAVLQSSGLYSLSSVVTVPSSSLGTQTYICNVNHKPSNTKVDKKVEPKSC
chain 2: DIQMTQSPSSLSASVGDRVTITCRSTKSLLHSNGITYLYWYQQKPGKAPKLLIYQMSNLASGVPSRFSSSGSGTDFTLTISSLQPEDFATYYCAQNLEIPRTFGQGTKVELKRTVAAPSVFIFPPSDEQLKSGTASVVCLLNNFYPREAKVQWKVDNALQSGNSQESVTEQDSKDSTYSLSSTLTLSKADYEKHKVYACEVTHQGLSSPVTKSFNRGECQGVGFLGTQFFYNTVSFNLGEAYEYPTFIQDLRNELAKGTPVCQLPVTLQTIADDKRFVLVDITTTSKKTVKVAIDVTDVYVVGYQDKWDGKDRAVFLDKVPTVATSKLFPGVTNRVTLTFDGSYQKLVNAAKADRKALELGVNKLEFSIEAIHGKTINGQEAAKFFLIVIQMVSEAARFKYIETEVVDRGLYGSFKPNFKVLNLENNWGDISDAIHKSSPQCTTINPALQLISPSNDPWVVNKVSQISPDMGILKFKSSK
notes: also called CB1-CD construct

Tests used:
[1] = molecular target: T1, Ep-CAM (Epithelial Cell Adhesion Molecule) (UniProt P16422 24-314, limits assumed); test: flow cytometry on NIH:OVCAR-3 cells (Ep-CAM-positive)
T1 construct: whole, on cells; Endogenous antigen on tumour cell lines; also called 17-1A; KSA
T1 sequence (looked up): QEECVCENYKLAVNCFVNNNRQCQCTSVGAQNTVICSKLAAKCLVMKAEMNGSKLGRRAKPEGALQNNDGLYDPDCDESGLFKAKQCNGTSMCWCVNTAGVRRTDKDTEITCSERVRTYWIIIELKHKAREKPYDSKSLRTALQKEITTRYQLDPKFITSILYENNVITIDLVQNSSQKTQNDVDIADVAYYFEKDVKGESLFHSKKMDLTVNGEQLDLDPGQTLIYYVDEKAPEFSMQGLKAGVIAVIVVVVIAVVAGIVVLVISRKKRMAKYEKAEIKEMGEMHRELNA

[2] = molecular target: T1, Ep-CAM (Epithelial Cell Adhesion …); test: flow cytometry on CAL 27 cells (Ep-CAM-positive)
[3] = molecular target: T1, Ep-CAM (Epithelial Cell Adhesion …); test: flow cytometry on NIH:OVCAR-3 cells (Ep-CAM-positive); one representative experiment
[4] = molecular target: T1, Ep-CAM (Epithelial Cell Adhesion …); test: flow cytometry on CAL 27 cells (Ep-CAM-positive); one representative experiment

Binder | Median Fold (MF) increase [1] | Median Fold (MF) increase [2] | Median Fold (MF) increase [3] | Median Fold (MF) increase [4]
B1 | 130 fold | 63.6 fold | – | –
B2 | 112 fold | 55 fold | – | –
B3 | – | – | 110 fold | 68 fold

Source: patent publication US20100215670A1 (published 2010)
